These results are taken from patent EP4803139A2 (Amgen Inc., dated 2026).

The target of the assay is T1, PCSK2 (R&D Systems) (UniProt P16519 26-638, limits assumed).
T1 sequence (looked up): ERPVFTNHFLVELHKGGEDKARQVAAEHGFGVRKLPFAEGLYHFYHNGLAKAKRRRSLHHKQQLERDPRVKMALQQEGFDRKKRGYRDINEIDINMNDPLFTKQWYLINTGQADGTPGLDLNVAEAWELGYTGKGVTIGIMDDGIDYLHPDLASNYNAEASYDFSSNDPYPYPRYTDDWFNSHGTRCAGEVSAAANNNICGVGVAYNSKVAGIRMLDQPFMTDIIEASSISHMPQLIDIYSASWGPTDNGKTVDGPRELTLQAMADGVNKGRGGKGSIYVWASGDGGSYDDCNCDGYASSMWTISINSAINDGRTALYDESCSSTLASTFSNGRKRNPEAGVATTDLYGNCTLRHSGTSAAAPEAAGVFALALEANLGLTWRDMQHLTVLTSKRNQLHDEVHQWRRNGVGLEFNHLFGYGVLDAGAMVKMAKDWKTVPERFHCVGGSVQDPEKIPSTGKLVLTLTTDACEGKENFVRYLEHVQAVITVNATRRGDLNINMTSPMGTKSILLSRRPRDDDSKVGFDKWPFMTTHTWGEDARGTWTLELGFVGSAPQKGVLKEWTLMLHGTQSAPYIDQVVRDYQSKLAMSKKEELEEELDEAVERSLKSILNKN
As to the kind of experiment: competition ELISA: 0.4 µg/mL 11F1 pre-incubated with the convertase in solution, then binding to plate-captured biotinylated PCSK9.

B1: 11F1, anti-PCSK9 antibody (antibody, V domains shown)
VH: EVQLVESGGGLVQPGGSLRLSCAASGFTFSNYWMSWVRQAPGKGLEWVASIKQDGSEKYYVDSVKGRFAISRDNAKNSLFLQMNSLRAEDTAVYYCARDLVLMVYDIDYYYYGMDVWGQGTTVTVSS
VL: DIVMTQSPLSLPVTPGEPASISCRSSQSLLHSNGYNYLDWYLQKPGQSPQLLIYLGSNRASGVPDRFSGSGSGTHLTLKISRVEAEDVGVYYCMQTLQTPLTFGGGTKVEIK
For B1, the binding result is reported as “no binding (tested: 0 to 20 µg/mL)”.
